Test results as given in US20150175992A1.

Tests used:
Experiment in all cases: cell-based or functional assay
[1] = target: Bacillus subtilis XynA variant G13Y/K99Y/T104W/T110A/Y113D/N114Y/R122F/K154R/N159D/Q175L (Bacillus subtilis) (UniProt P18429)
[2] = target: Bacillus subtilis XynA variant G13Y/I77S/K99Y/T104W/T110A/Y113D/R122F/K154R/N159D/Q175L (Bacillus subtilis) (UniProt P18429)
[3] = target: Bacillus subtilis XynA variant G13Y/K99Y/T104W/T110A/Y113D/N114D/R122F/K154R/N159D/Q175L (Bacillus subtilis) (UniProt P18429)
[4] = target: Bacillus subtilis XynA variant G13Y/K99Y/T104W/T110A/Y113D/R122F/K154R/N159D/Q175L (Bacillus subtilis) (UniProt P18429)
[5] = target: Bacillus subtilis XynA variant G13Y/K99Y/T104W/T110A/Y113D/R122F/K154R/N159D/Q175/V81I (Bacillus subtilis) (UniProt P18429)
[6] = target: Bacillus subtilis XynA variant G13Y/I77V/K99Y/T104W/T110A/Y113D/R122F/K154R/N159D/Q175L (Bacillus subtilis) (UniProt P18429)
[7] = target: Bacillus subtilis XynA variant G13Y/K99Y/T104W/T110A/Y113D/N114F/R122F/K154R/N159D/Q175L (Bacillus subtilis) (UniProt P18429)
[8] = target: Bacillus subtilis XynA variant G13Y/T110A/Y113D/R122D/K154R/N159D/Q175L (Bacillus subtilis) (UniProt P18429)
[9] = target: Bacillus subtilis XynA variant G13Y/G34K/T110A/Y113D/R122D/Q175L (Bacillus subtilis) (UniProt P18429)
[10] = target: Bacillus subtilis XynA variant G13Y/T110A/Y113D/R122D/Q175L (Bacillus subtilis) (UniProt P18429)
[11] = target: Bacillus subtilis XynA variant D11F/R122D/T110A (Bacillus subtilis) (UniProt P18429)
[12] = target: Bacillus subtilis XynA variant G13Y/K99Y/T104W/T110A/Y113D/R122F/K154R/N159D/Q175K (Bacillus subtilis) (UniProt P18429)
[13] = target: Bacillus subtilis XynA variant G13Y/T110A/Y113D/R122D/S162D/Q175L (Bacillus subtilis) (UniProt P18429)
[14] = target: Bacillus subtilis XynA variant G13Y/I77M/K99Y/T104W/T110A/Y113D/R122F/K154R/N159D/Q175L (Bacillus subtilis) (UniProt P18429)
[15] = target: Bacillus subtilis XynA variant G13Y/I77L/K99Y/T104W/T110A/Y113D/R122F/K154R/N159D/Q175L (Bacillus subtilis) (UniProt P18429)
[16] = target: Bacillus subtilis XynA variant G13Y/K99Y/T104W/T110A/Y113D/R122F/K154R/N159D/Y166F/Q175L (Bacillus subtilis) (UniProt P18429)
[17] = target: Bacillus subtilis XynA variant G13Y/K99Y/T104W/T110A/Y113D/I118V/R122F/K154R/N159D/Q175L (Bacillus subtilis) (UniProt P18429)
[18] = target: Bacillus subtilis XynA wildtype xylanase (SEQ ID No. 1) (Bacillus subtilis) (UniProt P18429)
[19] = target: Bacillus subtilis XynA variant G13Y/K99Y/T104W/T110A/Y113D/N114D/R122F/K154R/N159D/Q175K (Bacillus subtilis) (UniProt P18429)
[20] = target: Bacillus subtilis XynA variant G13Y/T110A/Y113D/R122F/Q175L (Bacillus subtilis) (UniProt P18429)
[21] = target: Bacillus subtilis XynA variant G13Y/K99Y/T104W/T110A/Y113D/N114Y/R122F/K154R/N159D/Q175K (Bacillus subtilis) (UniProt P18429)
[22] = target: Bacillus subtilis xylanase variant BS3 (wildtype with D11F/R122D mutations) (Bacillus subtilis) (UniProt P18429)
[23] = target: Bacillus subtilis XynA variant G13Y/I77Y/K99Y/T104W/T110A/Y113D/R122F/K154R/N159D/Q175L (Bacillus subtilis) (UniProt P18429)
[24] = target: Bacillus subtilis XynA variant G13Y/T110A/Y113D/R122D/S162E/Q175L (Bacillus subtilis) (UniProt P18429)
[25] = target: Bacillus subtilis XynA variant D11F/R122D/T110A/Y113A (Bacillus subtilis) (UniProt P18429)
[26] = target: Bacillus subtilis XynA variant G13Y/T110A/Y113D/R122D/W164F/Q175L (Bacillus subtilis) (UniProt P18429)

- % Activity @ 50 XIU/ml (residual xylanase activity) [1]: 78%
- % Activity @ 50 XIU/ml (residual xylanase activity) [2]: 20%
- % Activity @ 50 XIU/ml (residual xylanase activity) [3]: 79%
- % Activity @ 50 XIU/ml (residual xylanase activity) [4]: 64%
- % Activity @ 50 XIU/ml (residual xylanase activity) [5]: 46%
- % Activity @ 50 XIU/ml (residual xylanase activity) [6]: 45%
- % Activity @ 50 XIU/ml (residual xylanase activity) [7]: 79%
- % Activity @ 50 XIU/ml (residual xylanase activity) [8]: 32%
- % Activity @ 50 XIU/ml (residual xylanase activity) [9]: 97%
- % Activity @ 33.5 XIU/ml (residual xylanase activity) [10]: 50%
- % Activity @ 5.6 XIU/ml (residual xylanase activity) [11]: 98%
- % Activity @ 33.5 XIU/ml (residual xylanase activity) [11]: 100%
- % Activity @ 50 XIU/ml (residual xylanase activity) [12]: 72%
- % Activity @ 50 XIU/ml (residual xylanase activity) [13]: 40%
- % Activity @ 50 XIU/ml (residual xylanase activity) [14]: 46%
- % Activity @ 50 XIU/ml (residual xylanase activity) [15]: 75%
- % Activity @ 50 XIU/ml (residual xylanase activity) [16]: 68%
- % Activity @ 50 XIU/ml (residual xylanase activity) [17]: 79%
- % Activity @ 5.6 XIU/ml (residual xylanase activity) [18]: 29%
- % Activity @ 50 XIU/ml (residual xylanase activity) [19]: 79%
- % Activity @ 50 XIU/ml (residual xylanase activity) [20]: 65%
- % Activity @ 50 XIU/ml (residual xylanase activity) [21]: 84%
- % Activity @ 5.6 XIU/ml (residual xylanase activity) [22]: 100%
- % Activity @ 33.5 XIU/ml (residual xylanase activity) [22]: 100%
- % Activity @ 50 XIU/ml (residual xylanase activity) [22]: 95%
- % Activity @ 50 XIU/ml (residual xylanase activity) [23]: 37%
- % Activity @ 50 XIU/ml (residual xylanase activity) [24]: 44%
- % Activity @ 5.6 XIU/ml (residual xylanase activity) [25]: 99%
- % Activity @ 50 XIU/ml (residual xylanase activity) [26]: 29%
Substance: crude inhibitor preparation (containing both TAXI and XIP) from wheat (Triticum aestivum) flour
